Sequences and labels used below:
B1: Protein #2 (SEQ ID NO: 2 with a His-tag (SEQ ID NO: 1) fused to its N-terminus) (designed binder)
chain: MRGSHHHHHHGSDLGKKLLEAARAGQDDEVRELLKAGADVNAKDYFSHTPLHLAARNGHLKIVEVLLKAGADVNAKDFAGKTPLHLAANEGHLEIVEVLLKAGADVNAQDIFGKTPADIAADAGHEDIAEVLQKAA
B2: Protein #3 (SEQ ID NO: 3 with a His-tag (SEQ ID NO: 1) fused to its N-terminus) (designed binder)
chain: B1 chain with N89A, E90D
B3: Protein #4 (SEQ ID NO: 4 with a His-tag (SEQ ID NO: 1) fused to its N-terminus) (designed binder)
chain: B1 chain with N89D, E90A

Numbering of substitutions follows the chain as printed.

For 3 molecules, EC50 and Kd results are on record in patent US20240124535A1 (Molecular Partners, published 2024).

T2 sequence (P02768 25-609 limits assumed): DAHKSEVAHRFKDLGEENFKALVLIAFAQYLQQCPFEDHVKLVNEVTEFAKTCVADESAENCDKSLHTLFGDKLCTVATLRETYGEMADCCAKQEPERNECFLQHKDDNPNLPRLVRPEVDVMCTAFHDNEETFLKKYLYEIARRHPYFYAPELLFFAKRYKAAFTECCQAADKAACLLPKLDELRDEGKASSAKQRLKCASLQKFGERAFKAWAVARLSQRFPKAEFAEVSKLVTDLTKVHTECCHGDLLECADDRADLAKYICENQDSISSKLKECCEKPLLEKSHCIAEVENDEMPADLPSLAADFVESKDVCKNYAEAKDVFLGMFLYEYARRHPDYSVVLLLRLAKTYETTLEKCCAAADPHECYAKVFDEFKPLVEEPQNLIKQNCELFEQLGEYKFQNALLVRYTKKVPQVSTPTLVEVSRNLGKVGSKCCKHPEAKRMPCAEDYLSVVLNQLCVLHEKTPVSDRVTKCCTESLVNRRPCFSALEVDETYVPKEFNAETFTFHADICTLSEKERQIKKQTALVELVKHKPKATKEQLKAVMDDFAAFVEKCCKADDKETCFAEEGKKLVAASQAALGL
T3 sequence (A2V9Z4 25-608 limits assumed): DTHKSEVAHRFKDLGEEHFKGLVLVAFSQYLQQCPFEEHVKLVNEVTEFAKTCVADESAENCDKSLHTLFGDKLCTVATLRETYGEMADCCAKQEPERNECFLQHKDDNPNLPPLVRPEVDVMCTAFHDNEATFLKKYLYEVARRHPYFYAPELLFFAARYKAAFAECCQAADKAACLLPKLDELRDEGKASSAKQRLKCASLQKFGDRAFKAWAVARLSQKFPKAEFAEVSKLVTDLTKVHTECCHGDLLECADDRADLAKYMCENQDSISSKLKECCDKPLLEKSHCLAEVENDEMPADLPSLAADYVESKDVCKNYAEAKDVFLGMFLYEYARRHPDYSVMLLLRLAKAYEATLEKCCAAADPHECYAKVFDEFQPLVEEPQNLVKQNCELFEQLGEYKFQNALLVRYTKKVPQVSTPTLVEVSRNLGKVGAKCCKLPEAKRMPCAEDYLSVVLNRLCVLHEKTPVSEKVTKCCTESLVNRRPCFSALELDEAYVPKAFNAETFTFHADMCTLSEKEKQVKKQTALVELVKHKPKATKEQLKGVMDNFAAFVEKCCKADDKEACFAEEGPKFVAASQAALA

The first assay concerns the target T1, mouse serum albumin (mouse, UniProt P07724 25-608). The experiment in a line: ELISA, serum albumin immobilized on plate, in PBST-C. The procedure:
(§1) Samples of proteins of Example 2 were subjected to ELISA serum albumin cross-reactivity analyses as described in WO2016156596. 100 μl of 20 nM serum albumin in PBS per well were immobilized in a Maxisorp plate (Nunc, Denmark) overnight at 4° C. After washing 5 times with 300 μl PBST (PBS supplemented with 0.1% Tween 20), the wells were blocked with 300 μl PBST-C(PBST supplemented with 0.25% casein) for 2 h at room temperature with shaking at 450 rpm on a Titramax 1000 shaker (Heidolph, Germany). After washing 5 times as described above, 100 μl/well or 50 μl/well proteins #2, #3, or #4 (concentrations ranging from 100 nM to 0.01 pM for each protein) in PBST-C were applied and incubated for 2 h at room temperature with shaking at 450 rpm. After washing 5 times as described above, binding of the proteins was detected using 100 μl rabbit anti-designed ankyrin repeat domain monoclonal antibody in PBST-C for 1 h at room temperature with shaking at 450 rpm. After washing 5 times as described above, bound anti-designed ankyrin repeat domain antibody was detected using 100 μl/well goat anti-rabbit IgG-HRP conjugate in PBST-C for 1 h at room temperature with shaking at 450 rpm. After washing 5 times as described above, the ELISA was then developed using 100 μl BM soluble blue POD substrate (Roche, Switzerland), diluted 1:4 in water. The reaction was stopped after 5 min using 100 μl 1 M H2504. The OD (OD 450 nm-OD 620 nm) was then recorded. EC 50 values were determined using Graph Pad Prism (Table 3). […] The measured EC₅₀ values for cynomolgus monkey serum albumin binding are below 20 nM for proteins #2, #3, and #4.
A word on the EC50: it is the concentration giving half of the maximal effect. With B1, the EC50 is under 30 nM.
B2 yielded an EC50 of under 30 nM.
The molecule B3 had an EC50 of under 30 nM.

A further assay deals with T2, human serum albumin (human, UniProt P02768 25-609). Described as above. The protocol:
as §1
As for B1, the EC50 was under 1 nM.
For the molecule B2, the EC50 was under 1 nM.
Same read-out and setting: the result for B3 reads under 1 nM.

The next assay addresses T3, cynomolgus monkey serum albumin (cynomolgus monkey (Macaca fascicularis), UniProt A2V9Z4 25-608). The assay is described as above. The protocol: as §1
B1 yielded an EC50 of under 20 nM.
The molecule B2 displayed an EC50 of under 20 nM.
Regarding B3, the EC50 is under 20 nM.

The next assay deals with T2, human serum albumin. The assay can be described thus: SPR, ProteOn system (BioRad), in PBS. The protocol: Affinity of proteins of Example 2 to human serum albumin were determined by SPR measurements using a ProteOn system (BioRad) in PBS according to standard procedures known to the person skilled in the art.
(In SPR one partner is held on a chip, and binding of the other changes the refractive index at the surface.)
In general, Kd refers to the constant that tells how readily two partners part at equilibrium. Consider B1, for which the Kd was found to be 31.1 nM.
For B2, the Kd came out at 35.5 nM.
With B3, the affinity, expressed as Kd, was 34.4 nM.

The target in the next assay is T1, mouse serum albumin. The assay can be described thus: ELISA, serum albumin immobilized on plate, in PBST-C. This is another data set of the same source. The protocol: as §1
(In general: ELISA stands for enzyme-linked immunosorbent assay.)
B1 returned an EC50 of 9.6 nM.
B2 yielded an EC50 of 14.7 nM.
B3 returned an EC50 of 24 nM.

The target in another assay is T2, human serum albumin. The assay is described as above. The source holds these as a separate data set. The procedure:
as §1
B1 registered an EC50 of 0.32 nM.
In turn, B2 registered an EC50 of 0.64 nM.
For the molecule B3, a half-maximal effect (EC50) was put at 0.84 nM.

The target of another assay is T3, cynomolgus monkey serum albumin. The description is as above. The source holds these as a separate data set. The procedure:
as §1
Take B1: the EC50 amounted to 2.8 nM.
With B2, it took 6.8 nM to reach a half-maximal effect (EC50).
Still for that read-out and setting: the result for B3 reads 13.1 nM.
